Data reported in PMC9831982 (Nature Communications, 2023).

Molecular target: T1, Slh1 (from SLH1-FTP, released by TEV protease) as imaged by HS-AFM (S. cerevisiae, UniProt P53327 1-1967)
T1 construct: Slh1 (RQT2), S. cerevisiae; The methods describe this purification for the wild-type and the double-mutant trimer; not shown: protein A (behind a TEV site), C-terminal, cleaved
Experiment: HS-AFM; purified complex (5 nM) on mica in RQT-AFM buffer (50 mM Tris pH 7.5, 100 mM NaCl, 10 mM MgCl2, 100 mM L-arginine, 10 µM ZnCl2), room temperature
Conditions: both partners purified

T1 sequence (P53327 whole entry): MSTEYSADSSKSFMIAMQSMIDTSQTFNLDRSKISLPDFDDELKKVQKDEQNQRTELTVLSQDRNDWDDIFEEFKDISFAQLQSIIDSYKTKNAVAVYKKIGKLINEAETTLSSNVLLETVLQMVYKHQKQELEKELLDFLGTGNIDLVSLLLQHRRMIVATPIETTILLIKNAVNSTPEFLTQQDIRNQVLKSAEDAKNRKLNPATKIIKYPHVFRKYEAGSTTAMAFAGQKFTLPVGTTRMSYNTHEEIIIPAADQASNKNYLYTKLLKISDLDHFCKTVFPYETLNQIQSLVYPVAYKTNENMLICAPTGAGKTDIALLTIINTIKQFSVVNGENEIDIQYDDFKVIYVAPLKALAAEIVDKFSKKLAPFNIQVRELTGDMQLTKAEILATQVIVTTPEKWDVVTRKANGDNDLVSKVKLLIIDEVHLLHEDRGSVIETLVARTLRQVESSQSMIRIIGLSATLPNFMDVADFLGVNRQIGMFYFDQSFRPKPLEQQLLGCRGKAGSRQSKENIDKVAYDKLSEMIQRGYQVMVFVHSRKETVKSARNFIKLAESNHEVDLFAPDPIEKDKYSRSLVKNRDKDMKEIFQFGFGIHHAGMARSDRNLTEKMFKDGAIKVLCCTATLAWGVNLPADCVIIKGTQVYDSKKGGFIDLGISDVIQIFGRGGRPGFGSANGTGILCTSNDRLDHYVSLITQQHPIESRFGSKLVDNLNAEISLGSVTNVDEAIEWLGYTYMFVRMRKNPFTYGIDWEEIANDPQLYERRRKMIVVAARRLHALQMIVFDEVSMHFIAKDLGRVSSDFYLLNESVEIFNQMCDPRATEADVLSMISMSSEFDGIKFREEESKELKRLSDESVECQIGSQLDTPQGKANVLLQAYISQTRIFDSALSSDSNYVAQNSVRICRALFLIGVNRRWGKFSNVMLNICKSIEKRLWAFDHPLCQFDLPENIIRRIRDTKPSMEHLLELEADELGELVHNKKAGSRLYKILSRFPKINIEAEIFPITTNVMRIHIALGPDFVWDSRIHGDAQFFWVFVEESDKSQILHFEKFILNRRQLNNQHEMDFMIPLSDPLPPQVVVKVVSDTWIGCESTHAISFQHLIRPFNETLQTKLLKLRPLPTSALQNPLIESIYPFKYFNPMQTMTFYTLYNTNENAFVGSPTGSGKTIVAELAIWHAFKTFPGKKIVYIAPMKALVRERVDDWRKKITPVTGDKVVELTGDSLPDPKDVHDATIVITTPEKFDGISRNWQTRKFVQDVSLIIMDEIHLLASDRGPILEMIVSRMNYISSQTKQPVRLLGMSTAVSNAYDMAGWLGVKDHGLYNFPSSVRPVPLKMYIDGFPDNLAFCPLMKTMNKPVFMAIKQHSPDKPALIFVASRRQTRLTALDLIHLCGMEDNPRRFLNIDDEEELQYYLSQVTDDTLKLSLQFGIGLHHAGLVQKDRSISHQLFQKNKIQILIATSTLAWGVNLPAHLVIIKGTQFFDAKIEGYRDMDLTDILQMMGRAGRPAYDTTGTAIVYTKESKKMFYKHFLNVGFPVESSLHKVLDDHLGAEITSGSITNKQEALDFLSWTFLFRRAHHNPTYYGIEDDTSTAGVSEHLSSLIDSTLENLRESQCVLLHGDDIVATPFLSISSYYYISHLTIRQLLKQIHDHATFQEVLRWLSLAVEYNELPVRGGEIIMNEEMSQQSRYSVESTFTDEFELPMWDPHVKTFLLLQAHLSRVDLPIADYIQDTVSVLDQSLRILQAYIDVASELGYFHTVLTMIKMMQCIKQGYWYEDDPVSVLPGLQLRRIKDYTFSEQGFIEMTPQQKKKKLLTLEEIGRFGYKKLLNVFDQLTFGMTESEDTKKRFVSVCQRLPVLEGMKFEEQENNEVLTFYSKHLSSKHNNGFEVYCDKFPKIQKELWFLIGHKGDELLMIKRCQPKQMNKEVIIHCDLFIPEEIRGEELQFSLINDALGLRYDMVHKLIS

Row | binding result | Binder
1 | binds | Cue3 as imaged by HS-AFM in the Slh1/Cue3 complex (natural protein, S. cerevisiae, UniProt P53137 1-624, looked up, Cue3 (RQT3), S. cerevisiae) MLSRYNRVIEINGGNADISLPIVKFPPFKLRAQLIEKDPVVWLHLIETYVTYFEYLMQGANVELLDESTLDHLRLFLRTYLHEIADEEGKLLSLGINHDVSEQLYLLKGWIFSLIKKCGLLHLQIFGDSLWNLIKVYVRRNPDSIRGLIDGSLKPRINTQRVQLDKSYQVQQHLKQLIESGKFKRIDLRCVEDLLSAKSMQPNKFAENFFTANWIEILEALWAKGQGRGHKEARELIIISLFSVSADRLLKITKELGISNFETLALYPLLGTMLINEGVHKRLPDLKSKLLFLNLGGLSMDEGDHMSYPTSSGTEVNEEQLSALMELFPQFSKYQLSQTLLAYDNNIELVTNKIFEDPTIIEAFSREPAEEEVEPVSDGDNASFTEELSILDRGDSSKNKELDKKIISEGVPDELRNKTLTRALKLLYEADEDERDDTYDEADVNRSDPSKRIGLQEDEESYDTKDDSNEVRQDHNYHIVEAYLWNLLKEDPKLFERSKRGTKVRKTMKEMTSWSDEKIEGWCRMLERSPTRARLLEKKFMFKGNSKTGKTSYVHNRDSQNDGNVVKEQAKQKKSENIKKHEPQSTEQKKRQHAKNEKRKGARANHNRKKGHDKKLARAGNNAI
2 | binds | Rqt4 as imaged by HS-AFM in the Slh1/Rqt4 complex (natural protein, S. cerevisiae, UniProt P36119 1-530, looked up, Rqt4, S. cerevisiae) MTRKQAIDYAIKQVPQILPLEESDVKALCEQVLSTSSDDPEQIASKFLEFLGHEDLSFEFVMKFNELLNQNDKKEEKKTKNVHLEHTAPTSWKNESKQPTNNYINKKGDEKPKKLKDEKKSSTTRPTVQPSNQSTQSNPIKEKKEHRSKGKLQSLQEIDEAIKMLELRDSGSSKNCNCQGTRHPVFDIAPNCLHCGKVVCVIEGLNKGKCGHCHEQLISDNERTQMVEILNQEKNELNGSSSSLSNASNGANVPKKKTKTYKITSGMGKNLFAEQDKLFDFIERKRERERKRNEVLKLQEEKEESEAKERQASEHDHKAEENPELLAAQERLDRLLYFQDTSAERTKIIDNASDFDMNQEVGLWGSARERALALKKQQRNLRKWEKVEKERNGRREKYVVSMNIGSNGKVTMTEVPKDTENVIAGSDDDISDISDEEDISDLKHIHALKSEINTTKSLENLHLQSKAWDYERDKKQFDRPTYVKKNSDTAQQNRKTEEKAHDMQAYDLKSRVQVDQNADASVEQNILAVL
